The values below come from US11672846B2, “Soluble bacterial and fungal proteins and methods and uses thereof in inhibiting and dispersing biofilm” (priority 2014, dated 2023).

Data set [1] deals with PNAG-overproducing E. coli biofilms. The data set can be described thus: Dispersal of pre-formed PNAG-dependent E. coli biofilms.
Experimental: Bacterial cultures expressing Psl were inoculated as stated above and were grown at 37° C. overnight with shaking at 200 rpm. All cultures were diluted in 1:100 in LB and arabinose was added to a final concentration of 0.5% (w/v) to induce Psl biosynthesis. Media containing the Psl-producing cultures were supplemented with 200 μg/mL ampicillin and 100 μg/mL kanamycin. The cultures were incubated statically for 24 h at 26° C. to allow for biofilm formation. After incubation non-adherent cells and media were removed by washing the plate with deionized water three times. The wells were filled with 95 μL of 100 mM sodium HEPES buffer pH 7.0 followed by 5 μL of varying concentrations of each hydrolytic enzyme (2 nM-5 μM). Reactions were allowed to proceed for up to 60 min at 25° C. on a rotating nutator at which time, the reaction was quenched by washing the plates with deionized water. The wells were stained with 200 μL of 0.1% (w/v) crystal violet for 10 min, and washed with water three times. Crystal violet dye from Psi cultures was solubilized in 100 μL of 95% ethanol for 10 min with rotation, after which time the absorbance was measured at 595 nm using a SpectraMax M2 from Molecular Devices (Sunnyvale, Calif.). The amount of biofilm is proportional to the absorbance from staining with crystal violet (Merritt et al 2005). All reactions were completed in at least triplicate and 100 mM sodium HEPES buffer pH 7.0 was used as an untreated control. The addition of 2.5 mg/mL kanamycin to culture prior to biofilm formation was used as a positive control as no cell growth occurs.
PNAG-overproducing E. coli was grown at 37° C. overnight in LB broth supplement with 200 ug/mL ampicillin and 100 ug/mL kanamycin with shaking at 200 rpm. An E. coli μgaABCD knockout strain was used as a non-biofilm forming control for background straining.
In data set [2] the test system is PNAG-overproducing E. coli. The data set can be described thus: Inhibition of PNAG-dependent E. coli biofilm formation (crystal violet). Particulars: read-out: EC50 of E. coli biofilm formation prevention, static 24 h at 26° C.
Experimental: In brief, PNAG-overproducing E. coli or S. carnosus was grown at 37° C. overnight in LB broth supplement with 200 μg/mL ampicillin and 100 μg/mL kanamycin, and 10 μg/mL tetracycline, respectively, with shaking at 200 rpm. Fresh cultures with antibiotic were prepared from the overnight culture using a 1:100 dilution, using LB broth for E. coli, and tryptic soy broth for S. carnosus. 95 μL of diluted culture was added to a sterile 96-well polystyrene round bottom microtiter plate and varying concentrations of protein (2 nM-5 μM) were added in 5 μL aliquots to give a final volume of 100 μL. The cultures were incubated statically for 24 h at 26° C. for E. coli, and 37° C. for S. carnosus, to allow for biofilm formation. To eliminate edge-effects, ˜200 μL of sterile water was placed in all outside wells and the plate was sealed with parafilm. After incubation non-adherent cells and media were removed by washing the plate with deionized water three times. The wells were stained with 150 μL of 0.1% (w/v) crystal violet for 10 min, and washed with water three times. The remaining dye was solubilized with 100 μL of 33% (v/v) acetic acid for 10 min with rotation, after which time the absorbance was measured at 595 nm using a SpectraMax M2 from Molecular Devices (Sunnyvale, Calif.). […] All reactions were completed in at least triplicates and buffer G was used as an untreated control. Either an E. coli pgaABCD knockout strain (DPGA) or S. carnosus treated with gentamycin, was used as a control for background straining.
Data set [3] is described as follows: Reducing sugar assay on dPNAG. In kind it is biochemical, S. aureus. The method, then:
Isolated dPNAG from S. aureus strain MN8m was solubilized in 6 N HCl at ˜10 mg/mL. 10 N NaOH was used to titrate the re-suspension until neutrality was reached, ˜pH 7-8. In a 50 μL reaction, 1 μM BpsB318-670 was incubated with 1-5 mg/mL of dPNAG in 100 mM HEPES pH 7.0 for 18 hours. The sample was split into two 20 μL aliquots and treated with DTT/3-Methyl-2-benzothiazolinone hydrazone hydrochloride hydrate and heated at 80° C. for 15 minutes. A solution of 0.5% (w/w) iron (III) ammonium sulfate dodecahydrate, 0.5% (w/w) sulfamic acid, and 0.25 N hydrochloric acid was added, mixed, and cooled to room temperature. […] Protein and dPNAG in buffer H were used as background controls.

The subject of the next data set is S. carnosus. The data set can be described thus: Inhibition of PNAG-dependent S. carnosus biofilm formation. The note with it: 5 μM, preliminary testing.
The subject of data set [4] is Pel biofilms of P. aeruginosa PAO1 ΔwspFΔpslpBADpel. The data set can be described thus: Dispersal of pre-formed Pel biofilms (crystal violet). The note with it: 38 μM and 19 μM, 2 h.
Text: The methodology to generate pre-formed Pel biofilms is identical to that of Psl biofilms, described in Example 4 with the exception that the strain used is P. aeruginosa PAO1 ΔwspFΔpslpBADpel.
For a further data set, the system named is A. fumigatus GAG biofilm. As to the kind of experiment: Inhibition of GAG-dependent A. fumigatus biofilm formation (crystal violet). In kind it is cell-based. The note with it: 20 h in Brian media, crystal violet.
Data set [5] relates to P. aeruginosa PAO1 ΔwspFΔpslpBADpel. As to the kind of experiment: Inhibition of Pel biofilm formation in static culture (crystal violet). The note with it: static culture.
The conditions of data set [6]: purified protein.
A short description of data set [7]: Reducing sugar assay on purified GAG. The data set is classed as biochemical, A. fumigatus. The method, then:
(§1) Crude GAG was isolated from A. fumigatus biofilms. 200 μL GAG aliquots were centrifuged to pellet the gelatinous fraction. The pellets were washed twice with 350 μL PBS. The wash procedure included vortexing for 5 min, sonicated in a bath for 3 min, and manual mixing by pipetting to reach homogeneity. The final pellet was resuspended in 200 μL of PBS. Samples were treated with 10-20 μM protein and incubated at 26° C. Samples were taken at 24 h. GAG hydrolysis was quantified using a reducing sugar assay as described previously (Anthon & Barrett 2002) with slight modifications. Briefly, 20 μL of enzyme reaction was mixed with 20 μL of 0.5 M NaOH and 20 μL of MBTH/DTT solution (1.5 mg/L 3-methyl-2-benzothiazolinone hydrazine (MBTH) and 0.5 mg/L DTT). The samples were incubated at 80° C. for 15 min before the addition of 40 μL of acidic iron reagent (0.5% (FeNH4(SO4)2).12 H2O, 0.5% sulfamic acid, and 0.25 N HCl). Samples were diluted two-fold in water, before the absorbance was quantified at 620 nm.

A short description of data set [8]: Reducing sugar assay, substrate specificity. The data set is classed as biochemical. The method, then:
as §1, with “[…] […]” for “Crude GAG was isolated from A. fumigatus biofilms. 200 μL GAG aliquots were centrifuged to pellet the gelatinous fraction.”, “GAG hydrolysis was quantified using a reducing sugar assay as described previously (Anthon & Barrett 2002) with slight modifications.” left out

In data set [9] the test system is P. aeruginosa PAO1 ΔwspFΔpslpBADpel biofilms with differentiated HL-60 cells. As to the kind of experiment: HL-60 neutrophil killing of P. aeruginosa biofilm (CFU plating).
Experimental: Overnight cultures of P. aeruginosa PAO1 ΔwspFΔpslpBADpel were diluted to an OD600 of 0.05 in LB+0.5% arabinose and inoculated in a 96 well tissue culture-treated plate at a final volume of 100 μl/well. The plate was incubated statically at 28° C. for 20 h. Supernatants were aspirated and 100 μL of phenol red-free RPMI+10% Fetal Bovine Serum (FBS) containing 0.5 μM of PelA47-303 was added. The plate was incubated at room temperature on a Nutator for 1 h. Following pretreatment with hydrolase, 100 μL RPMI+10% FBS containing 6×10^6 differentiated HL-60 cells were added to the wells, and plate was incubated for 90 min at 37° C., 5% CO2. Wells were aspirated and supernatant was diluted between 1/200000 and 1/400000, and plated (50 μl) onto LB agar. To aspirated wells, 200 μL of “disruption solution” (PBS containing 2 μM of PelA47-303 and 2 μM PslG31-442) was added and plate was incubated at room temperature on the Nutator for 1-1.5 h. Wells were aspirated, diluted and plated onto LB agar as above.
Data set [10] has as its system Psl biofilms of P. aeruginosa PAO1 pBADpsl. The data set can be described thus: Dispersal of pre-formed Psl biofilms (crystal violet). The data set is classed as cell-based, Pseudomonas aeruginosa.
The test system of data set [11] is pre-formed A. fumigatus GAG biofilms. The data set is classed as cell-based. Particulars: crystal violet.
Data set [12] deals with A549 pulmonary epithelial cell line injured by A. fumigatus. As to the kind of experiment: Chromium release epithelial cell damage assay. Particulars: 0.5 μM, 16 h.
Experimental: The immortalized airway epithelial cell line A549 was loaded with chromium-51 by incubating monolayers grown in 24-well tissue culture plates with 3 mCi of ^51Cr at 37° C. in 5% CO2 for 24 h. Excess chromium was removed by washing with Hank's Balanced Salt Solution (HBSS). […] For testing germ tubes, conidia were grown for 7 h in SAB media at 37° C., then the fungus was collected and resuspended in DF12K media before 0.5 μM of hydrolase was added. The germ tubes were incubated with hydrolase for 1 h before being added to the A549 cells. After 16, 20 and 24 h of co-incubation, an aliquot of the medium above the cells was retrieved and replaced with fresh media. The cells were then lysed with 6 N NaOH and the lysate collected. The ^51Cr content of the medium and lysates was then measured in a gamma counter and the extent of epithelial cell damage was calculated as a function of the degree of ^51Cr release. Each strain was tested in triplicate, and all results were corrected for spontaneous chromium release by uninfected epithelial cells.
The methodology for prevention of epithelial cell damage caused by A. fumigatus using Sph352-298 is identical to that previously described in Example 19 for the use PelA47-303.
The test system of data set [13] is Pel-dependent biofilms from P. aeruginosa PAO1 ΔwspFΔpslpBADpel. The data set can be described thus: Pel biofilm dispersal by enzyme in Pluronic F-127 gel. In kind it is cell-based, Pseudomonas aeruginosa. Particulars: 100, 200 and 500 μg/mL in 20% Pluronic F-127, 1 h. As to the method:
Poloxamer 407 (trade name Pluronic® F-127 or PF-127) is a hydrophilic non-ionic surfactant has been used as a drug delivery system for a number of routes of administration (Escobar-Chavez et al 2006). A 20% gel of PF-127 was prepared by mixing 1×PBS with Pluronic® F-127 at 4° C. until the polymer was dissolved. PelA47-303 was added at three concentrations; 100 μg/mL, 200 μg/mL and 500 μg/mL to this solution. Pel-dependent biofilms from strain P. aeruginosa PAO1 ΔwspFΔpslpBADpel were formed as described in Example 8. The buffer, gel and gels containing various concentrations of PelA47-303 were applied to the biofilm.

Data set [14] relates to P. aeruginosa PAO1 pBADpsl. As to the kind of experiment: Inhibition of Psl biofilm formation in static culture (crystal violet). The data set is classed as cell-based, Pseudomonas aeruginosa. Particulars: specificity control.

“Also recorded” adds a separate entry of the source.

Experimental for S. carnosus: In brief, PNAG-overproducing E. coli or S. carnosus was grown at 37° C. overnight in LB broth supplement with 200 μg/mL ampicillin and 100 μg/mL kanamycin, and 10 μg/mL tetracycline, respectively, with shaking at 200 rpm. Fresh cultures with antibiotic were prepared from the overnight culture using a 1:100 dilution, using LB broth for E. coli, and tryptic soy broth for S. carnosus. 95 μL of diluted culture was added to a sterile 96-well polystyrene round bottom microtiter plate and varying concentrations of protein (2 nM-5 μM) were added in 5 μL aliquots to give a final volume of 100 μL. The cultures were incubated statically for 24 h at 26° C. for E. coli, and 37° C. for S. carnosus, to allow for biofilm formation. To eliminate edge-effects, ˜200 μL of sterile water was placed in all outside wells and the plate was sealed with parafilm. After incubation non-adherent cells and media were removed by washing the plate with deionized water three times. The wells were stained with 150 μL of 0.1% (w/v) crystal violet for 10 min, and washed with water three times. The remaining dye was solubilized with 100 μL of 33% (v/v) acetic acid for 10 min with rotation, after which time the absorbance was measured at 595 nm using a SpectraMax M2 from Molecular Devices (Sunnyvale, Calif.). […] All reactions were completed in at least triplicates and buffer G was used as an untreated control. […]

B1: BpsB318-670: BpsB C-terminal hydrolase domain residues 318-670, SEQ ID NO: 19 (protein, listed as Bordetella bronchiseptica)
chain: PIERIVQVDLDYIYDPDPEQQNRNLGQLIDRMKDLAPSAVYLQAFADPKGDGDITEVYFPNRHLPMRADLFNRVAWQLKTRAGVMVYAWLPVLTFSVPPGNPAYGKVVQSTTRKPGERGLGSPTRLSPFHPDAHRVISEIYEDLAKAAHFDGLLFHDDAVLDDTEDSSPEALATYQGWGLPPDIAAIRADPKLAQQWSKGKIRYLIDFTMHLRHIVSGYQNDRDMVVARNLYAQPVLDPVSEAWYGQSLPEFLKSYDFVALMAMPNMEGAARPEQWMRQLVAAVARQKGLDRTIFELQARDWRVGKPIDTEILRRQMVQLRSLGAINYGYYPDDFIANHPDAEALRDVMSLKS
For the molecule B1, the EC50 – broadly, the concentration at which the effect is half-maximal – is approximately 90 nM in data set [1] (read-out: EC50 of degradation of pre-formed E. coli biofilm, 60 min, average starting OD595 of 0.5) and approximately 60 nM in data set [2]. In [3], the “dPNAG hydrolysis (in words)” value is “hydrolyze dPNAG”. Besides, the “inhibition of S. carnosus biofilm formation (in words)” value in the data set on S. carnosus is “can inhibit biofilm formation”.

B2: PelA47-303: soluble PelA hydrolase domain, residues 47-303, P. aeruginosa PAO1, SEQ ID NO: 12 (protein, listed as Pseudomonas aeruginosa)
chain: GGPSSVAFWYAERPPLAELSQFDWVVLEAAHLKPADVGYLKEQGSTPFAYLSVGEFDGDAAAIADSGLARGKSAVRNQAWNSQVMDLAAPSWRAHLLKRAAELRKQGYAGLFLDTLDSFQLQAEERREGQRRALASFLAQLHRQEPGLKLFFNRGFEVLPELPGVASAVAVESIHAGWDAAAGQYREVPQDDRDWLKGHLDALRAQGMPIVAIDYLPPERRDEARALAARLRSEGYVPFVSTPALDYLGVSDVEVQP
Consider B2, for which, in data set [4], the “dispersal of pre-formed Pel biofilm (in words)” value was “successfully dispersed the Pel biofilm; also recorded: biofilm dispersal after 2 hours”. Besides, in the data set with A. fumigatus GAG biofilm, the “concentration sufficient to prevent GAG biofilm formation” value is not below 2 µM. The “dispersal of PNAG-dependent biofilms (in words)” value in data set [1] is given as “had no affect”. Besides, in [5], the “enzyme concentration that prevented Pel biofilm formation” value is listed as 500 nM. Besides, in data set [6], the “concentration to which the protein could be concentrated” value is 8 to 10 mg/mL. Further, the “GAG hydrolysis, reducing ends (in words)” value in data set [7] (10-20 μM protein, 26° C., 24 h) is “number of reducing ends in solution increased”. The “reducing ends produced relative to Sph352-298” value in data set [7] (under assay conditions) is given as approximately 2 fold. Moreover, the “hydrolysis of chitin and chitosan” value in [8] is “not significant over background hydrolysis”. Further, the “degree of microbial killing by HL-60 neutrophil cell line” value in [9] (0.5 μM enzyme pretreatment, neutrophils alone approximately 22%) was approximately 42%. For the same molecule, the “bacterial killing relative to neutrophils alone” value in [9] (enzyme with neutrophils) is approximately 2 fold. Further, the “dispersal of pre-formed Psl biofilm (in words)” value in data set [10] is listed as “did not result in the loss of the Psl-dependent biofilm”. Moreover, the “dispersal of pre-formed GAG biofilm (in words)” value in [11] is “elimination of the GAG biofilm”. For the same molecule, the “epithelial cell injury by A. fumigatus, chromium release” value in [12] was “blocked the ability of A. fumigatus to induce pulmonary epithelial cell injury”. The “dispersal of Pel-dependent biofilm by enzyme in gel” value in data set [13] is on record as “able to disperse the biofilm; also recorded: successfully dispersed the biofilm”. In addition, the “inhibition of Psl biofilm formation (in words)” value in data set [14] is “did not inhibit Psl biofilm formation”.
